Source: the supplement of paper PMC7125110
± gives the standard error. For part of these data: Variants at the floor of the assay were thinned out.

B1: glmS ribozyme (parent)
chain: AUAAAAGCGCCAGAACUACAGAAAUGUAGUUGACGAGGAGGAGGUUUAUCGAAUUUUCGGCGGAUGCCUCCAAA

How the values were obtained:
Settings in all cases: with glucosamine-6-phosphate
[1] = variants of: B1; assay: kcat; higher = faster cleavage; RNA array
How it was run: (§1)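 Barcoded ribozyme variants on sequenced MiSeq chips were transcribed in situ by E. coli RNA polymerase and followed at 37 °C through a hybridised Cy3 probe. Glucosamine-6-phosphate at 40 μM to 10 mM in HEPES/KCl/Mg(OAc)2 buffer was flowed in, and tiles were imaged over ~14 h. Signals were normalised to baseline and to non-cleaving reference variants, and per-tile medians were fit to one- or two-exponential decays to give kobs. Weighted Michaelis–Menten fits across concentrations gave kcat and KM.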

[2] = variants of: B1; assay: self-cleavage kobs at 40 uM GlcN6P; higher = faster cleavage; RNA array
How it was run: as §1

[3] = variants of: B1; assay: self-cleavage kobs at 640 uM GlcN6P; higher = faster cleavage; RNA array
How it was run: as §1

[4] = variants of: B1; assay: KM; higher = weaker cofactor use; RNA array
How it was run: as §1

[5] = variants of: B1; assay: self-cleavage kobs at 160 uM GlcN6P; higher = faster cleavage; RNA array
How it was run: as §1

[6] = variants of: B1; assay: self-cleavage kobs at 2500 uM GlcN6P; higher = faster cleavage; RNA array
How it was run: as §1

[7] = variants of: B1; assay: self-cleavage kobs at 10000 uM GlcN6P; higher = faster cleavage; RNA array
How it was run: as §1

Row | Variant | kcat [1] [s⁻¹] | self-cleavage kobs at 40 uM GlcN6P [2] [s⁻¹] | self-cleavage kobs at 640 uM GlcN6P [3] [s⁻¹] | KM [4] [µM] | self-cleavage kobs at 160 uM GlcN6P [5] [s⁻¹] | self-cleavage kobs at 2500 uM GlcN6P [6] [s⁻¹] | self-cleavage kobs at 10000 uM GlcN6P [7] [s⁻¹]
1 | A42C U46A | < 1e-05 | < 1e-05 | < 1e-05 | – | – | – | –
2 | A42G C68A | 1.2e-05 ± 4.3e-06 | – | – | – | – | – | –
3 | G40C C71G | 0.0271 ± 0.0085 | 0.000948 ± 8.7e-05 | 0.00953 ± 0.0017 | 1170 ± 420 | 0.0028 ± 0.00046 | 0.0203 ± 0.0057 | –
4 | G41C C71G | 6.73e-05 ± 1.3e-05 | – | – | – | – | 6.12e-05 ± 7.2e-06 | 5.71e-05 ± 4.9e-06
5 | G43A A53G | 8.84e-05 ± 2.5e-05 | – | – | – | – | 0.000132 ± 2.8e-05 | 7.56e-05 ± 8.5e-06
6 | A42G U57G | 4.9e-05 ± 1.3e-06 | < 1e-05 | – | 514 ± 77 | < 1e-05 | 4.17e-05 ± 1.4e-05 | 4.59e-05 ± 1.4e-05
7 | G40U U46G | 0.00101 ± 0.00013 | 2.93e-05 ± 1.4e-05 | 0.000242 ± 3.9e-05 | 1860 ± 390 | 7.71e-05 ± 1.5e-05 | 0.000669 ± 8.8e-05 | 0.000785 ± 0.00012
8 | G40U A42C | 1.23e-05 ± 9.1e-08 | – | – | 2280 ± 50 | – | – | –
9 | G43C C68G | 0.0157 ± 0.0024 | 0.00205 ± 0.00027 | 0.0109 ± 0.0018 | 265 ± 63 | 0.00622 ± 0.0014 | 0.0139 ± 0.0031 | –
10 | U45A C50A | 1.56e-05 ± 1.5e-06 | – | – | – | – | – | –
11 | G40C U46G | 0.000983 ± 6.7e-05 | – | 0.00021 ± 4.6e-05 | 2350 ± 280 | 7.1e-05 ± 3.3e-05 | 0.000525 ± 0.00016 | 0.000789 ± 0.00015
12 | G43A U56A | 1.8e-05 ± 3.9e-06 | – | – | – | – | – | –
13 | G41C U49G | < 1e-05 | – | – | – | < 1e-05 | – | –
14 | G41A U54C | 0.000448 ± 5.8e-05 | – | 0.00013 ± 2.5e-05 | 1810 ± 510 | – | 0.000223 ± 4.7e-05 | 0.0004 ± 5.8e-05
15 | G43U U54A U55A C67G C68U | 0.000164 ± 6.5e-05 | – | – | – | – | – | 7.92e-05 ± 2.1e-05
16 | G41A U56G | 0.000193 ± 1.8e-05 | – | 5.1e-05 ± 1.4e-05 | 1740 ± 310 | – | 0.000109 ± 3.5e-05 | 0.000169 ± 4.7e-05
17 | G44U U54A | 0.000233 ± 6.1e-05 | – | 0.000111 ± 3.6e-05 | – | – | 0.000132 ± 4.1e-05 | 0.000252 ± 6.1e-05
18 | A42C G66U | 1.53e-05 ± 2e-06 | – | – | – | – | – | –
19 | G44C U54C | 0.000264 ± 8.4e-05 | – | – | – | – | 0.000133 ± 2.4e-05 | 0.000179 ± 3e-05
20 | G43A C70U | 6.4e-05 ± 1.2e-05 | – | – | – | – | 4.94e-05 ± 8.8e-06 | 5.31e-05 ± 8.3e-06
21 | A42U C67U | 0.000151 ± 1.3e-05 | – | 5.2e-05 ± 6.3e-06 | 1090 ± 300 | – | 0.000127 ± 1.2e-05 | 0.000131 ± 8.5e-06
